One block for each binder: values may come before it.
Columns and labels:
Peptide_012 = target: T1, Peptide_012 (human); assay: peptide microarray, 1 ug/mL
T1 construct: 15-mer on microarray; not native form, includes recombinant insert region
T1 peptide: HHHHHHHVKQIESKT
Procedure: (§1) 5, 1, 0.2, 0.04, 0.008 and 0.0016 μg/mL serial dilutions were incubated on a single multi-well microarray slide at 30° C. for 1 hour. The slide includes 21 individual mini-arrays (one mini-array per sample dilution).
(§2) DyLight 650 was used as a label. False-positive binding to a peptide was evaluated by performing one additional control incubation in which only a secondary antibody was applied on the same microarray slide. Before performing each step, the microarrays were washed with a washing buffer.

Peptide_013 = target: T2, Peptide_013 (human); assay: peptide microarray, 1 ug/mL
T2 construct: 15-mer on microarray; not native form, includes recombinant insert region
T2 peptide: HHHHHHVKQIESKTA
Procedure: as §1, §2

Peptide_014 = target: T3, Peptide_014 (human); assay: peptide microarray, 1 ug/mL
T3 construct: 15-mer on microarray; not native form, includes recombinant insert region
T3 peptide: HHHHHVKQIESKTAF
Procedure: as §1, §2

Peptide_015 [1] = target: T4, Peptide_015 (human); assay: peptide microarray, 1 ug/mL
T4 construct: 15-mer on microarray; not native form, includes recombinant insert region
T4 peptide: HHHHVKQIESKTAFQ
Procedure: as §1, §2

Peptide_018 = target: T5, Peptide_018 (human); assay: peptide microarray, 1 ug/mL
T5 construct: 15-mer on microarray; not native form, includes recombinant insert region; also called HVKQIESKTAFQEAL
T5 peptide: HVKQIESKTAFQEAL
Procedure: as §1, §2

Peptide_019 [2] = target: T6, Peptide_019 (human); assay: peptide microarray, 1 ug/mL
T6 construct: 15-mer of hTrx1 on microarray
T6 peptide: VKQIESKTAFQEALD
Procedure: as §1, §2

Peptide_020 [3] = target: T7, Peptide_020 (human); assay: peptide microarray, 1 ug/mL
T7 construct: 15-mer of hTrx1 on microarray
T7 peptide: KQIESKTAFQEALDA
Procedure: as §1, §2

Peptide_021 = target: T8, Peptide_021 (human); assay: peptide microarray, 1 ug/mL
T8 construct: 15-mer of hTrx1 on microarray
T8 peptide: QIESKTAFQEALDAA
Procedure: as §1, §2

Peptide_022 = target: T9, Peptide_022 (human); assay: peptide microarray, 1 ug/mL
T9 construct: 15-mer of hTrx1 on microarray
T9 peptide: IESKTAFQEALDAAG
Procedure: as §1, §2

Peptide_023 = target: T10, Peptide_023 (human); assay: peptide microarray, 1 ug/mL
T10 construct: 15-mer of hTrx1 on microarray
T10 peptide: ESKTAFQEALDAAGD
Procedure: as §1, §2

Peptide_024 = target: T11, Peptide_024 (human); assay: peptide microarray, 1 ug/mL
T11 construct: 15-mer of hTrx1 on microarray
T11 peptide: SKTAFQEALDAAGDK
Procedure: as §1, §2

Peptide_025 = target: T12, Peptide_025 (human); assay: peptide microarray, 1 ug/mL
T12 construct: 15-mer of hTrx1 on microarray
T12 peptide: KTAFQEALDAAGDKL
Procedure: as §1, §2

Peptide_045 = target: T13, Peptide_045 (human); assay: peptide microarray, 1 ug/mL
T13 construct: 15-mer of hTrx1 on microarray
T13 peptide: SATWCGPCKMIKPFF
Procedure: as §1, §2

Peptide_051 = target: T14, Peptide_051 (human); assay: peptide microarray, 1 ug/mL
T14 construct: 15-mer of hTrx1 on microarray
T14 peptide: PCKMIKPFFHSLSEK
Procedure: as §1, §2

Peptide_084 [4] = target: T15, Peptide_084 (human); assay: peptide microarray, 1 ug/mL
T15 construct: 15-mer of hTrx1 on microarray
T15 peptide: SECEVKCMPTFQFFK
Procedure: as §1, §2

Peptide_085 = target: T16, Peptide_085 (human); assay: peptide microarray, 1 ug/mL
T16 construct: 15-mer of hTrx1 on microarray
T16 peptide: ECEVKCMPTFQFFKK
Procedure: as §1, §2

Peptide_086 = target: T17, Peptide_086 (human); assay: peptide microarray, 1 ug/mL
T17 construct: 15-mer of hTrx1 on microarray
T17 peptide: CEVKCMPTFQFFKKG
Procedure: as §1, §2

Peptide_092 = target: T18, Peptide_092 (human); assay: peptide microarray, 1 ug/mL
T18 construct: 15-mer of hTrx1 on microarray
T18 peptide: PTFQFFKKGQKVGEF
Procedure: as §1, §2

Peptide_093 = target: T19, Peptide_093 (human); assay: peptide microarray, 1 ug/mL
T19 construct: 15-mer of hTrx1 on microarray
T19 peptide: TFQFFKKGQKVGEFS
Procedure: as §1, §2

Peptide_094 = target: T20, Peptide_094 (human); assay: peptide microarray, 1 ug/mL
T20 construct: 15-mer of hTrx1 on microarray
T20 peptide: FQFFKKGQKVGEFSG
Procedure: as §1, §2

Peptide_095 = target: T21, Peptide_095 (human); assay: peptide microarray, 1 ug/mL
T21 construct: 15-mer of hTrx1 on microarray
T21 peptide: QFFKKGQKVGEFSGA
Procedure: as §1, §2

Peptide_015 [5] = target: T4, Peptide_015; assay: peptide microarray, 0.2 ug/mL
Procedure: as §1, §2

Peptide_019 [6] = target: T6, Peptide_019; assay: peptide microarray, 0.2 ug/mL
Procedure: as §1, §2

Peptide_020 [7] = target: T7, Peptide_020; assay: peptide microarray, 0.2 ug/mL
Procedure: as §1, §2

Peptide_084 [8] = target: T15, Peptide_084; assay: peptide microarray, 0.2 ug/mL
Procedure: as §1, §2

Peptide_028 = target: T22, Peptide_028; assay: peptide microarray, anti-mouse IgG DyLight 650, MMC2 heatmap (Example 17)
T22 peptide: FQEALDAAGDKLVVV
Procedure: as §1, §2
(§3) To visualize the obtained results and compare binding regions across individual cultures, as shown in FIGS. 21A to 21D, heatmap diagrams were calculated. In FIGS. 21A to 21D, the fluorescence intensity is expressed in a color-coded manner, white indicates no binding, and red indicates strong binding. For all evaluations, the MMC2-value of the average pixel fluorescence for each peptide was calculated.

Peptide_074 = target: T23, Peptide_074; assay: as above
T23 peptide: VDVDDCQDVASECEV
Procedure: as §1, §2, §3

Peptide_102 = target: T24, Peptide_102; assay: as above
T24 peptide: KVGEFSGANKEKLEA
Procedure: as §1, §2, §3

Peptide_004 = target: T25, Peptide_004 (human); assay: peptide microarray, 1 ug/mL
T25 construct: 15-mer on microarray; not native form, recombinant insert region
T25 peptide: AADVHSQHHHHHHHH
Procedure: as §1, §2

Peptide_005 = target: T26, Peptide_005 (human); assay: peptide microarray, 1 ug/mL
T26 construct: 15-mer on microarray; not native form, recombinant insert region
T26 peptide: ADVHSQHHHHHHHHV
Procedure: as §1, §2

[9] = target: T27, human thioredoxin-1 (Trx1) (human, UniProt P10599 1-105); assay: one site - total fit (Prism) of the ELISA of panel (a); the cell has no unit, the concentrations of panel (a) are in nM; paragraph 183 prints it rounded as 1.1x10^-11 [b]
T27 construct: also called hTrx1; hTRX1
T27 sequence (looked up): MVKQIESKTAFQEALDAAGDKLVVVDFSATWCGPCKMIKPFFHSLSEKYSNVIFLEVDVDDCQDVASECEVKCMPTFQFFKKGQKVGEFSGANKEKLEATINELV
Procedure: 100 μl of a coating buffer and 100 ng of Trx1 were mixed and dispensed to each well, and then reacted at 4° C. for 16 hours or more. After the reaction solution was removed, 200 μl of PBSA was dispensed to each well and reacted at 37° C. for 120 minutes. […] After the reaction solution was removed, washing was performed by dispensing 200 μl of a washing buffer to each well. The above-described process was performed two times.
After the reaction solution was removed, washing was performed by dispensing 200 μl of a washing buffer to each well. The above-described process was performed three times.

signal (blank-control = 1) (Peptide_012): 3.65
signal (blank-control = 1) (Peptide_013): 4.05
signal (blank-control = 1) (Peptide_014): 6.71
signal (blank-control = 1) (Peptide_015 [1]): 5.11
signal (blank-control = 1) (Peptide_018): 5.52
signal (blank-control = 1) (Peptide_019 [2]): 1.67
signal (blank-control = 1) (Peptide_020 [3]): 2.3
signal (blank-control = 1) (Peptide_021): 2.48
signal (blank-control = 1) (Peptide_022): 5.88
signal (blank-control = 1) (Peptide_023): 1.19
signal (blank-control = 1) (Peptide_024): 6.5
signal (blank-control = 1) (Peptide_025): 7.24
signal (blank-control = 1) (Peptide_045): 5.11
signal (blank-control = 1) (Peptide_051): 3.91
signal (blank-control = 1) (Peptide_084 [4]): 3.26
signal (blank-control = 1) (Peptide_085): 3.56
signal (blank-control = 1) (Peptide_086): 1.56
signal (blank-control = 1) (Peptide_092): 9.76
signal (blank-control = 1) (Peptide_093): 5.33
signal (blank-control = 1) (Peptide_094): 3.26
signal (blank-control = 1) (Peptide_095): 3.52
signal (blank-control = 1) (Peptide_015 [5]): 2.5
signal (blank-control = 1) (Peptide_019 [6]): 1.48
signal (blank-control = 1) (Peptide_020 [7]): 1.84
signal (blank-control = 1) (Peptide_084 [8]): 2.36
binding result (Peptide_028): no binding (tested: 5 ug/mL)
binding result (Peptide_074): no binding (tested: 5 ug/mL)
binding result (Peptide_102): no binding (tested: 5 ug/mL)
B1: monoclonal antibody B264 (antibody, mouse IgG1, kappa, V domains shown)
VH: QVQLQQSGAELARPGASVKMSCKASGYTFTSYTMHWVKQRPGQGLEWIGYINPTSDYTNYNQKFKDKATLTADKSSSTAYMQLSSLTSEDSAVYFCASEGGFLYYFDYWGQGTTLTVSS
VL: DVLMTQTPLSLPVSLGDQASISCRSSQSIVHSNGNTYLEWYLQKPGQSPKLLIYKVSNRFSGVPDRFSGSGSGTDFTLKISRVEAEDLGVYYCFQGSHVPYTFGGGTKLEIKR
notes: also called AB264; B264 (Trx1-mIgG1)

signal (blank-control = 1) (Peptide_004): 2.71
signal (blank-control = 1) (Peptide_005): 3.58
Kd [9]: 0.0112 nM
B2: monoclonal antibody B266-1 (antibody, human IgG1)
light: QIVLTQSPAIMSASPGEKVTMTCSASSRISYMYWYQQKPGTSPKRWIYDTSKLASGVPARFSGSGSGTSYSLTISTMEAEDAATYYCHQRSSYPTFGAGTKLELKSVAAPSVFIFPPSDEQLKSGTASVVCLLNNFYPREAKVQWKVDNALQSGNSQESVTEQDSKDSTYSLSSTLTLSKADYEKHKVYACEVTHQGLSSPVTKSFNRGEC
heavy: not shown
notes: B266 with the Fc part changed to human IgG1; also called B266-1 (Trx1-hIgG1); B266-1 (hTrx1-hIgG1)

Reference: patent US20240192215A1 (E AND S HEALTHCARE, published 2024)
